Reference: patent publication US6756357 (ISTITUTO DI RICHERCHE DI BIOLOGIA MOLECOLARE DI ANGELETTI S …, dated 2004)
Numbering of substitutions follows the chain as printed. In names and notes the source's numbering stands.

B1: Lys155Ala/MUT-DH (ligand, human, UniProt P26441 1-200, looked up)
chain: MAFTEHSPLTPHRRDLCSRSIWLARKIRSDLTALTESYVKHQGLNKNINLDSADGMPVASTDQWSELTEAERLQENLQAYRTFHVLLARLLEDQQVHFTPTEGDFHQAIHTLLLQVAAFAYQIEELMILLEYKIPRNEADGMPINVGDGGLFEKALWGLKVLQELDHWTVRSIHDLRFISSHQTGIPARGSHYIANNKKM
notes: also called FADH-CNTF; FA/DH
B2: Lys155Ala/CNTF (ligand, human, UniProt P26441 1-200, looked up)
chain: B1 chain with D166S, H167Q
notes: also called FA-CNTF
B3: Phe152Ala/MUT-DH (ligand, human, UniProt P26441 1-200, looked up)
chain: B1 chain with F152A, A155K
notes: also called AKDH-CNTF; AK/DH
B4: Phe152Ala/Lys155Ala/MUT-DH (ligand, human, UniProt P26441 1-200, looked up)
chain: B1 chain with F152A
notes: also called AADH-CNTF; AA/DH
B5: Phe152Ala/Lys155Ala/hCNTF (ligand, human, UniProt P26441 1-200, looked up)
chain: B1 chain with F152A, D166S, H167Q
notes: also called Phe152Ala/Lys155Ala/CNTF; AA-CNTF
B6: human ciliary neurotrophic factor (hCNTF) (ligand, UniProt P26441 1-200, looked up)
chain: B1 chain with A155K, D166S, H167Q
notes: also called wild-type CNTF; wt
B7: MUT-DH (Ser166Asp/Gln167His/CNTF) (ligand, human, UniProt P26441 1-200, looked up)
chain: B1 chain with A155K
notes: also called DH-CNTF; S166D/Q167H/CNTF

Molecular target: T1, cellular LIF receptor on HepG2 cells (human, UniProt P42702 45-1097)
T1 sequence (looked up): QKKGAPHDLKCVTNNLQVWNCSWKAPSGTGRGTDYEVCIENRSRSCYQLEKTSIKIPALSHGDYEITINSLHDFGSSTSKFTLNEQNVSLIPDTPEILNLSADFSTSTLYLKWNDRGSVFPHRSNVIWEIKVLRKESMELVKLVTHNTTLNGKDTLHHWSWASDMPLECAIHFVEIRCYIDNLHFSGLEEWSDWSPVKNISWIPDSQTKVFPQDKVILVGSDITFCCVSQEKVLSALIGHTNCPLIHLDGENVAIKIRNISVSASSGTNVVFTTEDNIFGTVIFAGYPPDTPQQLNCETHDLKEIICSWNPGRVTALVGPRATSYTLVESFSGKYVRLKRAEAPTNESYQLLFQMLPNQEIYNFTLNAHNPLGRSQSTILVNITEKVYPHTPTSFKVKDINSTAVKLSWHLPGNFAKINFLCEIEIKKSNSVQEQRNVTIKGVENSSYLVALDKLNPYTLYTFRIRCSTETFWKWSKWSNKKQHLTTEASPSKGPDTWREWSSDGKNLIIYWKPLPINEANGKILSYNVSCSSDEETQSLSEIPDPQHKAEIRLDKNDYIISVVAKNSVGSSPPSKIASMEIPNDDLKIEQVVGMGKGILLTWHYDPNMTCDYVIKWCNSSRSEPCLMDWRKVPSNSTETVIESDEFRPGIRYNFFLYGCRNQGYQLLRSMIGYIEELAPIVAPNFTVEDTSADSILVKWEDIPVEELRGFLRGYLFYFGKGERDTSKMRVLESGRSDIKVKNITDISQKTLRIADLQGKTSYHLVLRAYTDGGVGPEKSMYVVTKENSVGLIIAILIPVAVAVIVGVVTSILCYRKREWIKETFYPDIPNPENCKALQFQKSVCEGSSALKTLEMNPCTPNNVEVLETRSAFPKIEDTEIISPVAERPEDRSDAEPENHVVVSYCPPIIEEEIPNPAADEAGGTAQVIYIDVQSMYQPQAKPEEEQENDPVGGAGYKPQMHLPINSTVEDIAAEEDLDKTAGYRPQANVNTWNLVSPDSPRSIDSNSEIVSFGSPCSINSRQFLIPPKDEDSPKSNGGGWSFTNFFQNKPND
Test: cell-based or functional assay

| Binder | haptoglobin secretion by HepG2 cells, without soluble CNTFRα (FIG. 2A) |
| --- | --- |
| B1 | ~20 % with respect to the maximum value |
| B2 | ~20 % with respect to the maximum value |
| B3 | ~20 % with respect to the maximum value |

Molecular target: T2, membrane-bound CNTFRα receptor on IMR-32 cells (human, UniProt P26992 23-342)
T2 sequence (looked up): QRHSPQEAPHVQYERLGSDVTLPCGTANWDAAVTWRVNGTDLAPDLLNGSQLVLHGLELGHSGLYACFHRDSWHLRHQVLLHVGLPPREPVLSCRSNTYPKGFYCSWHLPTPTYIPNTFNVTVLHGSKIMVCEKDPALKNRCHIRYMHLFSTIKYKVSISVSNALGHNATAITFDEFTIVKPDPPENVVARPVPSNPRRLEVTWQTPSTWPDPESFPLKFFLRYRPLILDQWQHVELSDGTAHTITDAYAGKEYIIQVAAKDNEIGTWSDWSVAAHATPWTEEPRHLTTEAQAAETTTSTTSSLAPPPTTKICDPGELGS
Test: cell-based or functional assay

| Binder | inhibition of Chat activity induced by a subsaturating dose of CNTF in IMR-32 cells (FIG. 4B) |
| --- | --- |
| B4 | 70 fold excess over CNTF for 50% inhibition |

Molecular target: T3, soluble LIFR (LIF receptor) (UniProt P42702 45-833, limits assumed, 35S-labelled in the test of FIG. 1B)
T3 construct: also called LIFR marked with 35S
T3 sequence (looked up): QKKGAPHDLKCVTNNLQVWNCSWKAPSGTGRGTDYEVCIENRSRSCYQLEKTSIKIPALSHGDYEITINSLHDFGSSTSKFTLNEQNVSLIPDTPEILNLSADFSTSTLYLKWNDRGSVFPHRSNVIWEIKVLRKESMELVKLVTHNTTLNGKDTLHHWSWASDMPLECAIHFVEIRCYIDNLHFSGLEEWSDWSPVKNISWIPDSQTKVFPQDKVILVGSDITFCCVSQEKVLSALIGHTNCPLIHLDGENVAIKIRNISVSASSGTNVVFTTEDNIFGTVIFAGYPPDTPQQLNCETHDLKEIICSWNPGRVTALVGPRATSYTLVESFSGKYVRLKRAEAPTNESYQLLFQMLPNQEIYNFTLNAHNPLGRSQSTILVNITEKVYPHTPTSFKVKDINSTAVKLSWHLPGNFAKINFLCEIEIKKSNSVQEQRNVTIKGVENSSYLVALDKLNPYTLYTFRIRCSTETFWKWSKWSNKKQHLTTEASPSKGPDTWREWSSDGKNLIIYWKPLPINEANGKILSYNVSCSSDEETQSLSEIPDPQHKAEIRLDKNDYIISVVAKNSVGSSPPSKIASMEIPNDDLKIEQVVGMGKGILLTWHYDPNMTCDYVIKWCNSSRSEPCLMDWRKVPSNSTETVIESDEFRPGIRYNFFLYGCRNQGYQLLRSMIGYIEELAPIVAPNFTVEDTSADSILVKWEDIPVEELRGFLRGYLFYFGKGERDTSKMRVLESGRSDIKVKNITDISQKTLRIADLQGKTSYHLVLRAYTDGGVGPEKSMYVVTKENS
Test: immunoprecipitation of 35S-LIFR with immobilised soluble CNTFRα and variant, SDS-PAGE (FIG. 1B)
Experimental: It is known from the literature that the molecules gp130 and LIFR are able to bind independently to the CNTF/CNTFRα complex (11). To assess the functional importance of D1 motif residues the ability of CNTF variants to assemble receptor complexes with the different subunits was assayed. Bonding of the cytokine/CNTFRα complex to gp130 or LIFR marked with ^35S was determined using immunoprecipitation tests as described in the literature (11). The soluble CNTFRα receptor was immobilised on A-Sepharose protein using the monoclonal antibody 9E10 anti-myc and incubated with soluble gp130 or LIFR marked with sulphur ^35S, in the absence or in the presence of different amounts of CNTF variants (1 or 0.1 mg). After washing, the bound material was eluted and subjected to SDS-PAGE.

| Binder | binding result |
| --- | --- |
| B1 | no binding (tested: 1 or 0.1 mg) |
| B4 | no binding (tested: 1 or 0.1 mg) |
| B3 | no binding (tested: 1 or 0.1 mg) |

Molecular target: T4, CNTFRα-myc (soluble extracellular domain of the CNTFRα receptor) (UniProt P26992 23-342)
T4 construct: extracellular domain; Captured on plates or protein A-Sepharose through the anti-myc antibody 9E10; also called CNTF receptor α; soluble CNTFRα receptor
T4 sequence (looked up): T2 sequence (looked up)
Test: solid-phase competition with biotinylated CNTF or biotinylated MUT-DH for immobilised CNTFRα-myc, soluble gp130 present
Experimental: The ability of CNTF variants to compete with biotinylated CNTF ([…]) for binding to the extracellular domain of the CNTFRα receptor was determined in a solid-phase binding assay, in the presence of soluble gp130, as described in preceding publications (19). "Microtiter" 96-well polystyrene culture plates were covered with […] of 50 mM sodium carbonate pH 9.5, containing […] of the monoclonal antibody 9E10, which is directed against a c-myc epitope, and the plates are then preserved at 4° C. for one night. The wells were then washed out five times with TBS (50 mM Tris-HCl, pH 7.5, 150 mM NaCl) containing 0.05% Tween and held for 90 minutes at room temperature in TBSMT (50 mM Tris-HCl, 150 mM NaCl, 5% (w/v) lyophilised non-fat milk). All subsequent incubations were carried out at room temperature on a mixer at a speed of 700 rpm, after each incubation period the wells were washed with TBS containing 0.05% Tween (five times each time). The following incubation periods were performed: (1) 2 hours with […] TBSMT containing […] of CNTFRα-myc; (2) 1 hour with […] of TBSMT containing 200 ng of gp130-flag, 5 nM biotinylated CNTF, and the various competitors and (3) 45 minutes with […] of TBS, 5% (w/v) of bovine serum albumin, 0.05% (v/v) Tween 20 containing 0.8 mg/ml avidin conjugated with alkaline phosphatase.
The alkaline phosphatase activity was determined at 37° C. using 1 mg/ml p-nitrophenyl phosphate in 1 M of diethanolamine-HCl, pH 9.8, and absorbancy at 405 nm was measured after 40–60 minutes using a suitable reader. In some experiments the biotinylated MUT-DH variant molecule (0.5 nM) as used as a ligand.

| Binder | Relative Binding ((IC50 of CNTF)/(IC50 of tested protein)) [ratio] |
| --- | --- |
| B1 | 42 |
| B4 | 51 |
| B5 | 0.9 |
| B6 | 1 |
| B2 | 1 |
| B3 | 32 |
| B7 | 41 |
